In this experiment the target is LRP6 of Super TopFlash (STF, HEK293) cells (UniProt O75581). Briefly: cell-based or functional assay.
LRP6 of Super TopFlash (STF, HEK293) cells, sequence (O75581 20-1613 limits assumed): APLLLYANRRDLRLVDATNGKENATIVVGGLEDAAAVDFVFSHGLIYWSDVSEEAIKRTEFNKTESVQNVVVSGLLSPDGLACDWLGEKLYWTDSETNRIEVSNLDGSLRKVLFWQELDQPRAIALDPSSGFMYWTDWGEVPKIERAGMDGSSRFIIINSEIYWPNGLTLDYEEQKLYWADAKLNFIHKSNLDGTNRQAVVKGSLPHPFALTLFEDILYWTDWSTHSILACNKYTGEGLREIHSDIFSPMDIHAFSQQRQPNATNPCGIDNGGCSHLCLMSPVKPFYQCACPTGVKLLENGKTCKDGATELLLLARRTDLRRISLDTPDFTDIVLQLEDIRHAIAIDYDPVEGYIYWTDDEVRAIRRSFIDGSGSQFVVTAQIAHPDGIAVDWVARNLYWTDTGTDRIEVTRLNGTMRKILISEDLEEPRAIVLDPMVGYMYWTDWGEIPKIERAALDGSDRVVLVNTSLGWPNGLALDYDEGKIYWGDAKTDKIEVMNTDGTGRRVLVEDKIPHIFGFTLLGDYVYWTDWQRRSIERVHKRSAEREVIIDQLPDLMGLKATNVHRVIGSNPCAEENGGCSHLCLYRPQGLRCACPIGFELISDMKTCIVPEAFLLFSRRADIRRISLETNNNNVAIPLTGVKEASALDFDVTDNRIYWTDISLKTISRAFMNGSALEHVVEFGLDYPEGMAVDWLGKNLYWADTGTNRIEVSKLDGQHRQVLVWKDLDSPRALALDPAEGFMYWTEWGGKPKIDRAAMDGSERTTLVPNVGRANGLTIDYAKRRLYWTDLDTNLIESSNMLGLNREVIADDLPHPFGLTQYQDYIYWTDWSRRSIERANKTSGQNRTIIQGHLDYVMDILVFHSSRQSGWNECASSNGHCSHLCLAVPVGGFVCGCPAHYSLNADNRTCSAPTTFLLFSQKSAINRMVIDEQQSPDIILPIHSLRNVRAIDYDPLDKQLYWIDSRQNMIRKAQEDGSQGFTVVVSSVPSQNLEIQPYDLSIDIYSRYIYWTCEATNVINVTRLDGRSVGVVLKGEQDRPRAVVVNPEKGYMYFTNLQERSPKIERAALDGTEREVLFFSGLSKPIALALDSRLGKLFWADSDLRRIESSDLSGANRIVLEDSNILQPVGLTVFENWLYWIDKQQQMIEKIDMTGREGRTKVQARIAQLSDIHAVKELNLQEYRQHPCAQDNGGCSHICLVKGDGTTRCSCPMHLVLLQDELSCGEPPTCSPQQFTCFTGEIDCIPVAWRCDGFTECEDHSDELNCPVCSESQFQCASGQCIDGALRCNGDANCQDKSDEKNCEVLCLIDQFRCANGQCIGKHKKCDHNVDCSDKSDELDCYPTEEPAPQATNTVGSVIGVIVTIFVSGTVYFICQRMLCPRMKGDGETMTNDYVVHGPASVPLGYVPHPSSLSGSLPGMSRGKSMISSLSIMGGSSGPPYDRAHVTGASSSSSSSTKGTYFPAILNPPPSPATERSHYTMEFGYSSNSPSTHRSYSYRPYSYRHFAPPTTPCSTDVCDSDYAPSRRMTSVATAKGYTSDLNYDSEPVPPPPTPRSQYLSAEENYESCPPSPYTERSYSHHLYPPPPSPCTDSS

In turn, “ACE 448 HSA-DKK2 full length (C1+C2) (from UniProt P02768 25-609; Q9UBU2 34-259) (ligand)” yielded an activity in the Super Top Flash assay against the HSA-DKK2 C2 proteins of 10 fold.

The values above are taken from patent US20200270335A1.
